Measured values reported in paper PMC13193388 (2025).

Molecular target: purified recombinant HIS epitope-tagged NOTCH3 extracellular domain (human, UniProt Q9UM47 40-1643, glycosylated)
Experiment: SPR

purified recombinant HIS epitope-tagged NOTCH3 extracellular domain, sequence (Q9UM47 40-1643): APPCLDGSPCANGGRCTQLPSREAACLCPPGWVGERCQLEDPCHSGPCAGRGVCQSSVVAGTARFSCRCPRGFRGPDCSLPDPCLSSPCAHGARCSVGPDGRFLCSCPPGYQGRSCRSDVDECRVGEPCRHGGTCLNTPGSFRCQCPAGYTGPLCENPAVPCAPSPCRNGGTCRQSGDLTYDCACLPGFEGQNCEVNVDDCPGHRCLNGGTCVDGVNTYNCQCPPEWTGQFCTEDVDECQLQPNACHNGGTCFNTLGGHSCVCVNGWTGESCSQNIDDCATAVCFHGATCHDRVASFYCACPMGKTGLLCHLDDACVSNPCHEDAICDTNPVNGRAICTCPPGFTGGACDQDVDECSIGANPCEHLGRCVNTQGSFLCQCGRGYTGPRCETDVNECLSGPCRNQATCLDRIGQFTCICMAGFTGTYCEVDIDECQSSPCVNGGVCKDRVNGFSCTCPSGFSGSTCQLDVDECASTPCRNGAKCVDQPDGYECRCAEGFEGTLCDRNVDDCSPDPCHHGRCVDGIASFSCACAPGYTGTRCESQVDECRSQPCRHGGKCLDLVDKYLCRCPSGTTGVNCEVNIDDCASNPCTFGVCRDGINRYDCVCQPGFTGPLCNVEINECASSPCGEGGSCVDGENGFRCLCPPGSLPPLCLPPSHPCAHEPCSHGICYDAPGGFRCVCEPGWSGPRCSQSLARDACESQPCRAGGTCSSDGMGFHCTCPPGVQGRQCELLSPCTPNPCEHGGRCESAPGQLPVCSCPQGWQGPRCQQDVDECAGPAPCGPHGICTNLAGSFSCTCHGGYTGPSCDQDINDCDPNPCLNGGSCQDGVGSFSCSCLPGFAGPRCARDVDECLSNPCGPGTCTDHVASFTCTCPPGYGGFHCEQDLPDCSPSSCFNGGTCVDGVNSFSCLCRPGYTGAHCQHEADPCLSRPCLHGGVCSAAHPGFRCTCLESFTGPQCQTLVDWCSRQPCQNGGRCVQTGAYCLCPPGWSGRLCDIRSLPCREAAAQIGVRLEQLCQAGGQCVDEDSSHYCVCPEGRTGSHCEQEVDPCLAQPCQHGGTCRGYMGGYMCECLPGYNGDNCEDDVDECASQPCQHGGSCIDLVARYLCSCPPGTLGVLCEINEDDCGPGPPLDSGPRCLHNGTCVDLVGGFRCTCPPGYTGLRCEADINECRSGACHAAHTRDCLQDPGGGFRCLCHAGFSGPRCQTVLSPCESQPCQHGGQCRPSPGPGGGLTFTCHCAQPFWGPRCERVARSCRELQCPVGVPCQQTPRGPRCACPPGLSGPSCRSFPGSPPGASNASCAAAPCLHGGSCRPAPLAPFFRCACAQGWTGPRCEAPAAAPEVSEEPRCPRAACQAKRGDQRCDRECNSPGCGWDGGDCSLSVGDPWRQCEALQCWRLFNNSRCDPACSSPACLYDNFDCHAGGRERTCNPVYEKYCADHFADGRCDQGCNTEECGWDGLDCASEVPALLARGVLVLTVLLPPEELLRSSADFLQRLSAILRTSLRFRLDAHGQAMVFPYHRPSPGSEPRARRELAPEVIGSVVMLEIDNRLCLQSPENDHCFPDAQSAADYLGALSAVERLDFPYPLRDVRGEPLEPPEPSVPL

| Kd | Binder |
| --- | --- |
| 1180 nM | EKYGGGHFADGR [control peptide (EKYGGGHFADGR)] |
| 13.1 nM | EKYCADHFADGR [N34 peptide] |
